Reference: publication PMC9992855, “Functional polyamine metabolic enzymes and pathways encoded by the virosphere” (Proceedings of the National Academy of Sciences of the …, 2023)

System: N=C(N)NCCC[C@H](N)C(=O)O
Test: purified protein
Details: 27 °C
Text: decarboxylase activity assay on Ca. Fonsibacter ubiquis "ODC" (ODC/ADC)

Ca. Fonsibacter ubiquis "ODC" (ODC/ADC) (unidentified)
Km: 1.3 ± 0.12 mM
kcat: 2.2 ± 0.13 s⁻¹
kcat/Km: 1700 ± 91 M⁻¹ s⁻¹
